# From patent publication US20240376200A1 (Seagen, published 2024)
# Where two headings read alike, the source gives them in different places.
# T1: Coil 10 heavy chain peptide for CD studies (VelB L24I)
# T1 construct: also called Coil 10 (L24I); L24I VelB variant
# T1 peptide: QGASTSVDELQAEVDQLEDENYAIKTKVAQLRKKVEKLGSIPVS
# T2: Coil 148 heavy chain peptide for CD studies (VelB L24I/V28L)
# T2 construct: also called Coil 148 (L24I/V28L)
# T2 peptide: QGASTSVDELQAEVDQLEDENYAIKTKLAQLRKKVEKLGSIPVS
# T3: Vel heavy chain peptide for CD studies (VelB)
# T3 construct: also called VelB (heavy chain) peptide; VelB1
# T3 peptide: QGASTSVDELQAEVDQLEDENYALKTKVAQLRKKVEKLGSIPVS
# Key:
# [1] = target: T1, Coil 10 heavy chain peptide for CD …; experiment: circular dichroism thermal denaturation at 222 nm, 150 µM total peptide
# [2] = circular dichroism thermal denaturation at 222 nm
# [3] = target: T2, Coil 148 heavy chain peptide for CD …; experiment: circular dichroism thermal denaturation at 222 nm, 150 µM total peptide
# [4] = target: T3, Vel heavy chain peptide for CD studies …; experiment: as above
# recombinant human CD47 [5] = target: T4, recombinant human CD47 (human, UniProt Q08722 19-139, limits assumed); experiment: saturation binding ELISA
# T4 construct: also called recombinant CD47 antigen
# recombinant human CD47 [6] = target: T4, recombinant human CD47; experiment: saturation binding ELISA; remark: listed apart in the source
Binder,Tm (melting temperature of the light chain homodimer) [2],EC50 (recombinant human CD47 [6]) [nM],also measured
QGASTTVAQLEEKVKTLRAENYEAKSEVQRLEEQVAQLGSIPVS (also called Coil 10 (L24A); L24A VelA variant) [Coil 10 light chain peptide for CD studies (VelA L24A)],Tm=<20 °C,–,Tm (melting temperature of the heterodimer) [1]: 28.6 ° C.
QGASTTVAQLEEKVKTLRAENYEAKSELQRLEEQVAQLGSIPVS (also called Coil 148 (L24A/V28L)) [Coil 148 light chain peptide for CD studies (VelA L24A/V28L)],Tm=<20 °C,–,Tm (melting temperature of the heterodimer) [3]: 39.7 ° C.
QGASTTVAQLEEKVKTLRAENYELKSEVQRLEEQVAQLGSIPVS (also called VelA (light chain) peptide; VelA1) [Vel light chain peptide for CD studies (VelA)],Tm=35.7 °C,–,Tm (melting temperature of the heterodimer) [4]: 57.6 ° C.
"hB6H12.3 (unmasked anti-CD47 antibody) (antibody, V domains shown) VH: EVQLLESGGGLVQPGGSLRLSCAASGFTFSGYGMSWVRQAPGKRLEWVATITSGGTYTYYPDSVKGRFTISRDNSKNTLYLQMNSLRAEDTAIYFCARSLAGNAMDYWGQGTLVTVSS VL: EIVMTQSPDFQSVTPKEKVTLTCRASQTISDYLHWYQQKPDQSPKLLIKFASQSISGVPSRFSGSGSGSDFTLTINSLEAEDAATYYCQNGHGFPRTFGQGTKLEIKR",–,2.55,EC50 (recombinant human CD47 [5]): 2.55 nM
"Vel-IPV-hB6H12.3 (wild-type Vel mask, Coil 1) (antibody, V domains shown) VH: EVQLLESGGGLVQPGGSLRLSCAASGFTFSGYGMSWVRQAPGKRLEWVATITSGGTYTYYPDSVKGRFTISRDNSKNTLYLQMNSLRAEDTAIYFCARSLAGNAMDYWGQGTLVTVSS VL: EIVMTQSPDFQSVTPKEKVTLTCRASQTISDYLHWYQQKPDQSPKLLIKFASQSISGVPSRFSGSGSGSDFTLTINSLEAEDAATYYCQNGHGFPRTFGQGTKLEIK",–,494,EC50 fold change from hB6H12.3 (recombinant human CD47 [6]): 194 fold
